Measured values: paper PMC3169596, “G4-DNA Formation in the HRAS Promoter and Rational Design of Decoy Oligonucleotides for Cancer Therapy”

Target: T1, MAZ-GST (UniProt P56270 1-477)
T1 sequence: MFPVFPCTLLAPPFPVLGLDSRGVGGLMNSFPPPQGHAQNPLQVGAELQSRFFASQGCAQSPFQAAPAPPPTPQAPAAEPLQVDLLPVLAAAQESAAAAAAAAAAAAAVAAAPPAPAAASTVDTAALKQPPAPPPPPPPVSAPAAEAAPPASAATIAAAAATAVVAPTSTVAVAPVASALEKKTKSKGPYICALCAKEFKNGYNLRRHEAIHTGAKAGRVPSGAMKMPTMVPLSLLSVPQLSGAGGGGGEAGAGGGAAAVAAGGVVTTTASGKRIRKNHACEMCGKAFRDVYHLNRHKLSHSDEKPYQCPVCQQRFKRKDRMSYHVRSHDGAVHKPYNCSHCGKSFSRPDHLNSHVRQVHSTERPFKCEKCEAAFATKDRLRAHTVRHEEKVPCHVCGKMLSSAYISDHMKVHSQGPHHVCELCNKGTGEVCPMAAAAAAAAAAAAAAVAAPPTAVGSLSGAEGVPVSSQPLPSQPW
Assay: EMSA; 50 mM KCl, pH 7.4, poly d(I-C); apparent Kd given for the HRAS quadruplexes together; EMSA: 20 mM Tris-HCl pH 8, 30 mM KCl, 1.5 mM MgCl2, 1 mM DTT, 8% glycerol, 5 mM NaF, 1 mM Na3VO4, 2.5 ng/ml poly[dI-dC], 30 min room temperature (Figure 6c: pH)
Conditions: protein: recombinant; tags: GST; label: 33P; antiparallel intramolecular G4 in K+

Binder: TCGGGTTGCGGGCGCAGGGCACGGGCG (structured_DNA) [qhras-1 (quadruplex hras-1, H1)]
- Kd: ~1.5 µM
